Assay [1] has as its target T1, pig NPR1 extracellular domain expressed with a C-terminal myc-myc-hexahistidine (pig).
T1 chain: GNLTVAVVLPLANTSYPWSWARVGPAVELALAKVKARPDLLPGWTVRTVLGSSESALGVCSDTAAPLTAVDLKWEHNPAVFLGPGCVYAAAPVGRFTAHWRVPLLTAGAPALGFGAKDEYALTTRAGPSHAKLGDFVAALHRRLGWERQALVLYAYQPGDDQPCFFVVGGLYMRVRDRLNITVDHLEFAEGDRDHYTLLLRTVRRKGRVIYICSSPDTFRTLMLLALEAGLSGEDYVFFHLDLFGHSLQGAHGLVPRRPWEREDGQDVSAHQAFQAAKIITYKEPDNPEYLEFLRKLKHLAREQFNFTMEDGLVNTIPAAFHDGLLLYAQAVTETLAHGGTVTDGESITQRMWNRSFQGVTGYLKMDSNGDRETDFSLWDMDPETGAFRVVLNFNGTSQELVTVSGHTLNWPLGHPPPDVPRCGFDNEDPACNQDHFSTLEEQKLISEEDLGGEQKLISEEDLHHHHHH
Briefly: SPR Biacore 8K, mAb captured via anti-hFc, 25 C. The protocol:
(§1) The equilibrium dissociation constant (KD) for different NPR1 reagents binding to purified anti-NPR1 monoclonal antibodies (mAbs) were determined using a real-time surface plasmon resonance (SPR) based Biacore 8k biosensor. All binding studies were performed in 10 mM HEPES, 150 mM NaCl, 3 mM EDTA, and 0.05% v/v Surfactant P20, pH 7.4 (HBS-EP) running buffer at 25° C. and 37° C. The Biacore CM5 sensor chip surface was first derivatized by amine coupling with anti-human Fc specific antibody to capture anti-NPR1 mAbs. Binding studies were performed on human NPR1 extracellular domain expressed with a C-terminal myc-myc-hexahistidine (hNPR1-MMH; SEQ ID NO:74), monkey NPR1 extracellular domain expressed with a C-terminal myc-myc-hexahistidine (mfNPR1-MMH; SEQ ID NO:75), mouse NPR1 extracellular domain expressed with a C-terminal myc-myc-hexahistidine (mNPR1-MMH; SEQ ID NO:76), dog NPR1 extracellular domain expressed with a C-terminal myc-myc-hexahistidine (dog_NPR1-MMH; SEQ ID NO:77), pig NPR1 extracellular domain expressed with a C-terminal myc-myc-hexahistidine (pig_NPR1-MMH; SEQ ID NO:78), and hNPR1-MMH+10×hANP.
(§2) Different concentrations (40 nM-0.625 nM, 4-fold serial dilutions) of hNPR1-MMH, mfNPR1-MMH, hNPR1-MMH in the presence of 10-fold concentration of hANP, or a fixed concentration (40 nM) of mNPR1-MMH, dog_NPR1-MMH, pig_NPR1-MMH were prepared in HBS-EP running buffer, and then injected for 150 sec at a flow rate of 30 μL/min, while the dissociation of mAb bound different NPR1 reagents was monitored for 30 minutes in HBS-EP running buffer. At the end of each cycle, the anti-NPR1 mAb capture surface was regenerated using a 12 sec injection of 10 mM phosphoric acid. The association rate (ka) and dissociation rate (kd) were determined by fitting the real-time binding sensorgrams to a 1:1 binding model with mass transport limitation using Biacore insight evaluation software. Binding dissociation equilibrium constant (KD) and dissociative half-life (t½) were calculated from the kinetic rates as: […]

Assay [2] addresses T2, mouse NPR1 extracellular domain expressed with a C-terminal myc-myc-hexahistidine (mouse, UniProt P18293 29-469).
T2 construct: also called mNPR1-MMH
Description: SPR Biacore 8K, mAb captured via anti-hFc, 25 C. The protocol: as §1, §2
(SPR reads the build-up and loss of mass on a sensor chip optically.)

Assay [3] has as its target T3, dog NPR1 extracellular domain expressed with a C-terminal myc-myc-hexahistidine (dog).
T3 chain: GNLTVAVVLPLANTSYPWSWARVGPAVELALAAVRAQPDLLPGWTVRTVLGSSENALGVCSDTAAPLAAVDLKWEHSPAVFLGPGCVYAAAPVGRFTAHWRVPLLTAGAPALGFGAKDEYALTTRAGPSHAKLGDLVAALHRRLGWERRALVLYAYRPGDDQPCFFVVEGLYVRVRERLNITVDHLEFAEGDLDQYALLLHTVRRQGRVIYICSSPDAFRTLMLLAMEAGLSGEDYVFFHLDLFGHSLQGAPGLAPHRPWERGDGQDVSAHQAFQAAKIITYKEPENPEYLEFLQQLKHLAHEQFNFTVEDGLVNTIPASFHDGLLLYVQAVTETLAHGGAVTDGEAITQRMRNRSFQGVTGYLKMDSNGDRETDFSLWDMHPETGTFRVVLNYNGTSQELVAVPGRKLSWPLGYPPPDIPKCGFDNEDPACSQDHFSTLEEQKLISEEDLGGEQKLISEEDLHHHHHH
Description: SPR Biacore 8K, mAb captured via anti-hFc, 25 C. Here is the method:
as §1, §2

Assay [4] has as its target T4, monkey (Macaca fascicularis) NPR1 on HEK293/mfNPR1 cells (monkey (Macaca fascicularis)).
T4 construct: whole, on cells; No ligand added
Briefly: ECL cell-binding immunoassay (MSD), HEK293/mfNPR1, no ligand added. The protocol:
(§3) Cultures of the cell lines described above were rinsed once in 1×PBS buffer without Ca²⁺/Mg²⁺ and incubated for 10 minutes at 37° C. with Enzyme Free Cell Dissociation Solution to detach cells from the flask. The collected cell pellets were washed once with and resuspended in 1×PBS with Ca²⁺/Mg²⁺ and then cells were counted with a Cellometer™ Auto T4 cell counter (Nexcelom Bioscience, Lawrence, Mass.). Approximately 2.0×10⁴ cells per well were seeded onto 96-well carbon electrode plates (Meso Scale Diagnostics, Rockville, Md.) and incubated for 1 hour at 37° C. Nonspecific binding sites were blocked using 2% BSA (w/v) in 1×PBS containing Ca²⁺/Mg²⁺ for 1 h at room temperature. Subsequently, HEK293/hNPR1 and HEK293/mfNPR1 cells were incubated for 0.5 hour at room temperature with 10 nM hANP (Tocris, Minneapolis, Minn.), 100 nM hBNP (Tocris, Minneapolis, Minn.), or sample dilution buffer alone, while HEK293 cells were treated with sample dilution buffer only. Without washing, serial dilutions of anti-NPR1, Comparator 1 or the isotype control antibody, ranging from 1.7 pM to 100 nM, or buffer containing no antibody were added to the cells followed by 1 hour incubation at room temperature. Plates were then washed to remove unbound antibodies, hANP, and hBNP using an AquaMax2000 plate washer with a cell washing head (MDS Analytical Technologies, Sunnyvale, Calif.). The plate-bound antibodies were detected with a SULFO-TAG™-conjugated polyclonal goat anti-human IgG antibody specific for heavy and light chains (Jackson Immunoresearch, West Grove, Pa.) that was incubated with the cells for 1 hour at room temperature.
(§4) After washes, plates were developed with Read Buffer (Meso Scale Diagnostics, Rockville, Md.) according to manufacturer's recommended procedure and luminescent signals were recorded with a SECTOR Imager 600 (Meso Scale Diagnostics, Rockville, Md.). The binding signals in a unit of RLU were analyzed as a function of the antibody concentration and data were fitted with a sigmoidal (four-parameter logistic) dose-response model using R statistical package (open source).

For assay [5], the target named is T5, monkey NPR1 on HEK293/mfNPR1 cells in the presence of 10 nM hANP (monkey (Macaca fascicularis); human).
T5 construct: also called HEK293/mfNPR1 +10 nM hANP
T5 sequence (P01160 124-151): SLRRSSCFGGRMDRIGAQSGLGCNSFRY
Description: ECL cell-binding immunoassay (MSD), HEK293/mfNPR1, +10 nM hANP. Here is the method: as §3, §4

The target of assay [6] is T1, pig NPR1 extracellular domain expressed …. Description: SPR Biacore 8K, mAb captured via anti-hFc, 37 C. The protocol:
as §1, §2

Assay [7] deals with T2, mouse NPR1 extracellular domain …. Description: SPR Biacore 8K, mAb captured via anti-hFc, 37 C. The protocol: as §1, §2
Target sequence in this assay (P18293 other isoform, or with tags, fused parts or gaps): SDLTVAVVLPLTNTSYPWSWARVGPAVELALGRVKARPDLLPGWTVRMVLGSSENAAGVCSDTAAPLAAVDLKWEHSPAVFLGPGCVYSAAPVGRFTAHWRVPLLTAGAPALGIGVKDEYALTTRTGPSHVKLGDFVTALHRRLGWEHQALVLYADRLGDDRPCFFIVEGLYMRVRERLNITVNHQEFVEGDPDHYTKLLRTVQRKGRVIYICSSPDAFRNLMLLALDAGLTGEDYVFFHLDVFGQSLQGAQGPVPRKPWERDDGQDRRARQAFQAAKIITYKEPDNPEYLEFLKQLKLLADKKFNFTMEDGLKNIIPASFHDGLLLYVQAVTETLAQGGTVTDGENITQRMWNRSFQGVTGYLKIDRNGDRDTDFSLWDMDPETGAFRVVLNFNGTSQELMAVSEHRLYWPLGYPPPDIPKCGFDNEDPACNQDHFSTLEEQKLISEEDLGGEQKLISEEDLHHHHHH
Assay [8] addresses T3, dog NPR1 extracellular domain expressed …. Description: SPR Biacore 8K, mAb captured via anti-hFc, 37 C. Here is the method:
as §1, §2

The target of assay [9] is T6, monkey NPR1 on HEK293/mfNPR1 cells in the presence of 100 nM hBNP (monkey (Macaca fascicularis); human).
T6 construct: also called HEK293/mfNPR1 +100 nM hBNP
T6 sequence (P16860 103-134): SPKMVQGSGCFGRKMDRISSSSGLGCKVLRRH
Briefly: ECL cell-binding immunoassay (MSD), HEK293/mfNPR1, +100 nM hBNP. Here is the method: as §3, §4

For orientation: Kd means the equilibrium constant for the complex coming apart. A word on the koff: it is the first-order rate constant of dissociation. Broadly, the kon is a measure of how fast the partners come together. A word on the t½: it is the time needed for the level to fall by half in the phase considered. Usually EC50 stands for the concentration giving half of the maximal effect.

B1: REGN7548 (antibody, human IgG4 S228P, kappa, V domains shown)
VH: QVQLVQSGAEVKKPGASVKVSCKASGYTFTSYYIHWVRQAPGQGLEWMGIISPSDGYTSYAQNFQGRVTMTRDTSTNTVYMDLSSLRSEDTAMFYCARNDPLTTVALDYWGQGTLVTVSS
VL: AIQMTQSPSSLSASVGDRVTITCRASQGIRYDLGWFQQKPGKAPKLLIHAASSLQSGVPSRFSGSGSGTDFTLTISSLQPEDFATYYCLQDYNYPFTFGQGTKLEIKR
notes: also called mAb38090
In the case of B1, the “40 nM Ag Bound (RU)” value in assay [1] stood at 11 RU; in assay [2], 0 RU; in [3] it was 0 RU; in assay [6] it was 14 RU; in assay [7], 0 RU; in [8], 0 RU. The Kd in assay [1] was 35.8 nM; in assay [6], 42.1 nM. Moreover, the koff in [1] was determined as 0.00427 s⁻¹; in assay [6], 0.00927 s⁻¹. Besides, the kon is 119000 M⁻¹ s⁻¹ in assay [1] and 220000 M⁻¹ s⁻¹ in assay [6]. For the same molecule, the t½ is 2.7 min in [1] and 1.2 min in assay [6]. Also, the binding result in [2] and in [3] was “no binding (tested: 40 nM)” throughout. Besides, the values for the EC50 in [4], in assay [5] and in [9] were 0.56 nM, 1.2 nM and 0.56 nM, respectively.

B2: H4H22034 (antibody, human IgG4 S228P, kappa, V domains shown)
VH: EVQLLESGGDLVQPGGSLRLSCAASGFTFSDYAMIWVRQTPGKGLEWVSGISGGGGSTDYADSVKGRFTTSRDNVKNAMYLQMNSLRTEDTAVYYCAREDQLPSYHNYYGMDVWGQGTTVTVSS
VL: DIQMTQSPSSVSASVGDRVTITCRASQGINNYLAWFQQKPGKAPKSLIYGASSLQSGVPSKFSGSRSGIDFTLTISSLQPEDFATYYCQQYNSYPYTFGQGTKLEIKR
notes: also called H4H22034N; mAb22034
For B2, the “40 nM Ag Bound (RU)” value in assay [1], in assay [2], in assay [3], in assay [6], in assay [7] and in assay [8] was 0 RU each time. Besides, the binding result in assay [2], in assay [3] and in assay [6] was “no binding (tested: 40 nM)” throughout. The results for the EC50 in assay [4], in assay [5] and in [9] were 0.33 nM, 0.67 nM and 0.42 nM, respectively.

B3: REGN7541 (antibody, human IgG4 S228P, kappa, V domains shown)
VH: EVQLVESGGGLVQPGGSLRLSCAASGFTFSSYAMSWVRQAPGKGLEWVSTISGSGTNTYYADSVKGRFTISNDNSKNTLYLQMNSLRAEDTAVYYCANYDILTGHSFEYWGQGTLVTVSS
VL: AIQMTQSPSSLSASVGDRVTITCRASQGIRNDLGWYQQKPGKAPELLIYAASRLPSGVPLRFSGSGSGTDFTLTISSLQPEDVATYYCLQDYNYPFTFGPGTKVDIKR
notes: also called mAb38067
Turning to B3, the “40 nM Ag Bound (RU)” value in assay [1], in [2], in assay [3], in assay [6], in assay [7] and in [8] was 0 RU each time. Moreover, the binding result in assay [2], in assay [3] and in [6] was “no binding (tested: 40 nM)” throughout. The EC50 in assay [4] worked out at 1.4 nM; in assay [5] it was 2.9 nM; in [9], 0.92 nM.

B4: REGN7544 (antibody, human IgG4 S228P, kappa, V domains shown)
VH: EVQLVESGGGLVQPGGSLRLSCAASGFSFVSYVMGWVRQAPGKGLEWVSSISGSLTNTYYADPVKGRFTISRDNSKNTLYLQMNSLRAEDTAAYYCVTYDILTGHLFDYWGQGTLVTVSS
VL: AIQMTQSPSSLSASVGDRVTITCRSSQGIRNDFGWYQQKPGKAPKLLIYAASRLQSGVPSRFSGSGSGTDFTLTINNLQPEDFATYYCLQDYTYPFTFGPGTKVDIKR
notes: also called mAb38072
In the case of B4, the “40 nM Ag Bound (RU)” value came to 2 RU in assay [1]; 0 RU in assay [2]; 0 RU in [3]; 5 RU in assay [6]; 0 RU in [7]; 0 RU in [8]. The Kd in assay [1] amounted to 122 nM; in assay [6], 98.1 nM. For the same molecule, the koff in assay [1] came out at 0.00679 s⁻¹; in assay [6], 0.00947 s⁻¹. Further, the kon in assay [1] was found to be 55800 M⁻¹ s⁻¹; in assay [6], 96500 M⁻¹ s⁻¹. Besides, the figures for the t½ in assay [1] and in assay [6] were 1.7 min and 1.2 min, respectively. In addition, the binding result in assay [2] and in assay [3] was “no binding (tested: 40 nM)” throughout. The values for the EC50 in [4], in assay [5] and in [9] were 1.7 nM, 4.2 nM and 1.7 nM, respectively.
